According to patent US20250242023A1 (published 2025):

T1: mesothelin (MsIn), murine peptide on H-2Db (mouse)
T1 peptide: GQKMNAQAI


Key:
[1] = target: T1, mesothelin (MsIn), murine peptide on …; assay: multimer staining
Description: Flow cytometry: Mononuclear cells were stained with MsIn₄₀₆₋₄₁₄:H-2D^b-APC or -BV421 tetramer (1:100) in the presence of 1:100 Fc block (αCD16/32, Tonbo), and monoclonal antibodies diluted 1:100 in FACs Buffer (2% BSA+PBS) or (2.5% FBS+PBS+1% NaN₃) and specific to CD45 (30F-11, Biolegend), CD8a (53-6.7, Tonbo), CD44 (IM7, BD Biosciences), CD62L (MEL-14, Biolegend), CD69 (H1.2F3, BD Biosciences), CD25 (PC61, BD Biosciences), Vβ9 (MR10-2, Biolegend), CD3e (145-2C11, BD Biosciences), CD4 (GK1.5, BD Biosciences), and/or TCRβ (h57-597, eBiosciences) in the presence of live/dead stain (Tonbo Ghost dye in BV510 or APC ef780). Cells were fixed using Foxp3 transcription factor reagent (Tonbo), for 30 minutes at 4° C., washed and intracellular stained with aKi67 (B56, BD Biosciences) and/or Foxp3 (3G3, Tonbo) diluted 1:100 in Fix/Perm buffer (Tonbo) and stained overnight. The next day, cells were washed 2× with perm wash buffer and resuspended in FACs buffer or 0.4% PFA for 15 minutes at 4° C. Cells were resuspended in FACs buffer and Countbright Absolute Counting Beads (Thermo Fisher). Cells were acquired with a Fortessa 1770 flow cytometer and Facs Diva software (BD Biosciences). Data were analyzed using FlowJo software (version 10). ViSNE analysis was performed by gating on total live T cells with default settings of 1000 iterations, 30 perplexity and theta of 0.5 using Cytobank software.

[2] = target: T1, mesothelin (MsIn), murine peptide on …; assay: cytokine release

binding result [1]	binding result [2]	Binder
recognises	–	1045 TCR (TCR, V domains shown) Valpha: GDSVTQTEGPVTVSESESLIINCTYSATSIAYPNLFWYVRYPGEGLQLLLKVITAGQKGSSRGFEATYNKETTSFHLQKASVQESDSAVYYCALGLDYANKMIFGLGTILRVRP Vbeta: DTTVKQNPRYKLARVGKPVNLICSQTMNHDTMYWYQKKPNQAPKLLLFYYDKILNREADTFEKFQSSRPNNSFCSLYIGSAGLEYSAMYLCASSNPQDTQYFGPGTRLLVL
–	recognises	7431 TCR (TCR, V domains shown) Valpha: GDSVTQTEGPVTVSESESLIINCTYSATSIAYPNLFWYVRYPGEGLQLLLKVITAGQKGSSRGFEATYNKETTSFHLQKASVQESDSAVYYCALGPDTNAYKVIFGKGTHLHVLP Vbeta: DTTVKQNPRYKLARVGKPVNLICSQTMNHDTMYWYQKKPNQAPKLLLFYYDKILNREADTFEKFQSSRPNNSFCSLYIGSAGLEYSAMYLCASSRGANTEVFFGKGTRLTVV
